Measurements: article PMC4359968 (Cancer research, 2015)

Molecular target: RAGE-Fc (human RAGE) (human, UniProt Q15109 23-342)
Experiment: ELISA

RAGE-Fc (human RAGE), sequence (Q15109 23-342): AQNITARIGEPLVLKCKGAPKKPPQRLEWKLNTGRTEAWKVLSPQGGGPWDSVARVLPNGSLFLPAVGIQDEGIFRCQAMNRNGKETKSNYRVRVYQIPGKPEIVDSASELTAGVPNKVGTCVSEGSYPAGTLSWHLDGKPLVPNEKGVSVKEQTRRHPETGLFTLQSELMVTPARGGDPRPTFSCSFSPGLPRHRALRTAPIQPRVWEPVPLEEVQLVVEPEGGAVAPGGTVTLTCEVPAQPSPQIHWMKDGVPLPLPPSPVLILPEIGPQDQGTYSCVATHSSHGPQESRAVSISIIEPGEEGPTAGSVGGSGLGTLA

B1: human recombinant S100A7 (ligand, UniProt P31151 1-101, looked up)
chain: MSNTQAERSIIGMIDMFHKYTRRDDKIEKPSLLTMMKENFPNFLSACDKKGTNYLADVFEKKDKNEDKKIDFSEFLSLLGDIATDYHKQSHGAAPCSGGSQ
Question: Does B1 bind?
Answer: binds
